{
  "source": "paper PMC11118347",
  "about": "(bioRxiv, 2024)",
  "biological_target": "the molecule itself",
  "assay": "crystal structure",
  "data": [
    {"protein": "Human lens fiber membrane intrinsic protein MP20 (construct selected for crystallization) (natural protein, Janelia Fluor 549 NHS-ester labelling on column; membranes incubated with iodoacetamide) MYSFMGGGLFCAWVGTILLVVAMATDHWMQYRLSGSFAHQGLWRYCLGNKCYLQTDSIAYWNATRAFMILSALCAISGIIMGIMAFAHQPTFSRISRPFSAGIMFFSSTLFVVLALAIYTGVTVSFLGRRFGDWRFSWSYILGWVAVLMTFFAGIFYMCAYRVHECRRLSTPR", "values": [
      {"measurement": "stoichiometry N", "result": 4}
    ]}
  ]
}
